Experimental data as given in publication PMC4354731.

Assays:
[1] = substrate: COC1=C(OC)C(=O)C(C)=CC1=O; test: succinate:Q0 oxidoreductase steady-state kinetics in membranes; type: biochemical, Escherichia coli; settings: [3Fe-4S], [4Fe-4S], [2Fe-2S] clusters; FAD; heme b
[2] = substrate: CC(C)=CCC1=C(O)C(=O)c2ccccc2C1=O; test: lapachol:fumarate oxidoreductase steady-state kinetics in membranes; type: biochemical, Escherichia coli; settings: [3Fe-4S], [4Fe-4S], [2Fe-2S] clusters; FAD; heme b

B1: succinate dehydrogenase (SdhCDAB), SdhB subunit (Escherichia coli K-12) (protein)
chain 1: MRLEFSIYRYNPDVDDAPRMQDYTLEADEGRDMMLLDALIQLKEKDPSLSFRRSCREGVCGSDGLNMNGKNGLACITPISALNQPGKKIVIRPLPGLPVIRDLVVDMGQFYAQYEKIKPYLLNNGQNPPAREHLQMPEQREKLDGLYECILCACCSTSCPSFWWNPDKFIGPAGLLAAYRFLIDSRDTETDSRLDGLSDAFSVFRCHSIMNCVSVCPKGLNPTRAIGHIKSMLLQRNA
chain 2: MIRNVKKQRPVNLDLQTIRFPITAIASILHRVSGVITFVAVGILLWLLGTSLSSPEGFEQASAIMGSFFVKFIMWGILTALAYHVVVGIRHMMMDFGYLEETFEAGKRSAKISFVITVVLSLLAGVLVW
chain 3: MVSNASALGRNGVHDFILVRATAIVLTLYIIYMVGFFATSGELTYEVWIGFFASAFTKVFTLLALFSILIHAWIGMWQVLTDYVKPLALRLMLQLVIVVALVVYVIYGFVVVWGV
Protein B1 has a Km [1] of 150 µM, a kcat [1] of 33.9 s⁻¹ and a Km [2] of 100 µM. The kcat [2] was 11.9 s⁻¹.
